PMC9482650, “Quantitative fragmentomics allow affinity mapping of interactomes” (Nature Communications, 2022)

T1: SYNJ2BP, P57105
T1 sequence (P57105 8-110, limits assumed, looked up): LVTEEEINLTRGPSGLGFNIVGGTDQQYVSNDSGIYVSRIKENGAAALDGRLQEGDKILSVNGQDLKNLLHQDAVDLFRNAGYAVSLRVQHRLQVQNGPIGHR

T2: MPP7, Q5T2T1
T2 sequence (Q5T2T1 134-230, limits assumed, looked up): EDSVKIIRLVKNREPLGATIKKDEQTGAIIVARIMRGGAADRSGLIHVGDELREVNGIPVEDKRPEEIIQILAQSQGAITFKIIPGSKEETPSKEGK

T3: MPDZ_5, O75970
T3 sequence (O75970 695-796, limits assumed, looked up): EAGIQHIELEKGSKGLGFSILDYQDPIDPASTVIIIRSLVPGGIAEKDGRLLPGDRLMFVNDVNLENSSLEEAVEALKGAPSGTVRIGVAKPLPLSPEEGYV

T4: LRRC7, Q96NW7
T4 sequence (Q96NW7 1440-1537, limits assumed, looked up): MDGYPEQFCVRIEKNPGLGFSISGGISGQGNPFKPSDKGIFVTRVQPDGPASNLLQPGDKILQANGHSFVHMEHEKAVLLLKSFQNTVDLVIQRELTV

T5: NHERF3_3, Q5T2W1
T5 sequence (Q5T2W1 238-333, limits assumed, looked up): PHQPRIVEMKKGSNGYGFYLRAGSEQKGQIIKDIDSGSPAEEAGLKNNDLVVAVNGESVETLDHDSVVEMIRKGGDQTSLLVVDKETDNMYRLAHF

T6: PCLO, Q9Y6V0
T6 sequence (Q9Y6V0 4491-4600, limits assumed, looked up): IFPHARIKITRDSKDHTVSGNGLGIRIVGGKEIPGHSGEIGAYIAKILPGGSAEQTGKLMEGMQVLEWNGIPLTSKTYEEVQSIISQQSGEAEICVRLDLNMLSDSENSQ

T7: NHERF3_4, Q5T2W1
T7 sequence (Q5T2W1 373-468, limits assumed, looked up): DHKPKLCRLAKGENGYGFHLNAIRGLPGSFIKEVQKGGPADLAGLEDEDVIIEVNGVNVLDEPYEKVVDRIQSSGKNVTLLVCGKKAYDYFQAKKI

T8: TX1BP3, O14907
T8 sequence (O14907 10-122, limits assumed, looked up): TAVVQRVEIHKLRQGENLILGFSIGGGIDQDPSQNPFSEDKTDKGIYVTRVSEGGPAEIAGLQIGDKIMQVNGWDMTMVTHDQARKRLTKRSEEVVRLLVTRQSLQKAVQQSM

T9: SNTA1, Q13424
T9 sequence (Q13424 82-180, limits assumed, looked up): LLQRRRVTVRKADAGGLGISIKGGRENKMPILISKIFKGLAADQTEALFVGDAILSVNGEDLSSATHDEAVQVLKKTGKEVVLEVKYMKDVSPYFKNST

T10: GRIP1_3, Q9Y3R0
T10 sequence (Q9Y3R0 247-346, limits assumed, looked up): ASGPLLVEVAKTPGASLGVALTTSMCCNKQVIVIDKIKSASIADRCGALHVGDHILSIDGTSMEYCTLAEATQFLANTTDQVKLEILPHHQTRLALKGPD

T11: GRIP1_7, Q9Y3R0
T11 sequence (Q9Y3R0 999-1096, limits assumed, looked up): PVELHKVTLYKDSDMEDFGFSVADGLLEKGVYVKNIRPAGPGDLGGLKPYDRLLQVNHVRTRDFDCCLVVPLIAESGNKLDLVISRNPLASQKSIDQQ

T12: RHPN1, Q8TCX5
T12 sequence (Q8TCX5 508-602, limits assumed, looked up): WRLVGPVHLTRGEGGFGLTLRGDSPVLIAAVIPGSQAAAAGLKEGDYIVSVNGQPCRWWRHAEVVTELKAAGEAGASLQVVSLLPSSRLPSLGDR


Biological target: T1, SYNJ2BP, P57105
Assay: holdup assay
Parameters: key: below the threshold = too weak to quantify, mostly under pKd 3.1 to 4
Details: plain residues with an end cap or a label only (N-terminal biotin on a linker: ado-ado)

Binder	pKd
TSSMRGMDAV [RSRC2, Q7L4I2]	below the threshold
TLPRKRMSSI [GPRC6A, Q5T6X5]	below the threshold
QSPANIYYKV [EFNB1, P52799]	below the threshold

Biological target: GRID2IP_2, A4D2P6
Sequence (A4D2P6 272-370): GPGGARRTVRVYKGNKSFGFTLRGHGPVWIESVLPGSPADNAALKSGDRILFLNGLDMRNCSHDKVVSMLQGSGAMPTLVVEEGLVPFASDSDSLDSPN
Assay: holdup assay
Parameters: key: below the threshold = too weak to quantify, mostly under pKd 3.1 to 4
Details: plain residues with an end cap or a label only (N-terminal biotin on a linker: ado-ado)

Binder	pKd
TSSMRGMDAV [RSRC2, Q7L4I2]	below the threshold
TLPRKRMSSI [GPRC6A, Q5T6X5]	3.87
QSPANIYYKV [EFNB1, P52799]	below the threshold

Biological target: DLG5_1, Q8TDM6
Sequence (Q8TDM6 617-713): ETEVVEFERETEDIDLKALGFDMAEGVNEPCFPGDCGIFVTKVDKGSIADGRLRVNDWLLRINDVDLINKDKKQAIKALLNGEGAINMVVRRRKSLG
Assay: holdup assay
Parameters: key: below the threshold = too weak to quantify, mostly under pKd 3.1 to 4
Details: plain residues with an end cap or a label only (N-terminal biotin on a linker: ado-ado)

Binder	pKd
TSSMRGMDAV [RSRC2, Q7L4I2]	below the threshold
TLPRKRMSSI [GPRC6A, Q5T6X5]	below the threshold
QSPANIYYKV [EFNB1, P52799]	below the threshold

Biological target: T2, MPP7, Q5T2T1
Assay: holdup assay
Parameters: key: below the threshold = too weak to quantify, mostly under pKd 3.1 to 4
Details: plain residues with an end cap or a label only (N-terminal biotin on a linker: ado-ado)

Binder	pKd
TSSMRGMDAV [RSRC2, Q7L4I2]	below the threshold
TLPRKRMSSI [GPRC6A, Q5T6X5]	below the threshold
QSPANIYYKV [EFNB1, P52799]	3.61

Biological target: DLG2_3, Q15700
Assay: holdup assay
Parameters: key: below the threshold = too weak to quantify, mostly under pKd 3.1 to 4
Details: plain residues with an end cap or a label only (N-terminal biotin on a linker: ado-ado)

Binder	pKd
TSSMRGMDAV [RSRC2, Q7L4I2]	below the threshold
TLPRKRMSSI [GPRC6A, Q5T6X5]	3.84
QSPANIYYKV [EFNB1, P52799]	below the threshold

Biological target: MAGI2_3, Q86UL8
Sequence (Q86UL8 600-682): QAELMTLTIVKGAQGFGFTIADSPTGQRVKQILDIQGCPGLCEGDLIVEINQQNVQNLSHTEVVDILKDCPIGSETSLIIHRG
Assay: holdup assay
Parameters: key: below the threshold = too weak to quantify, mostly under pKd 3.1 to 4
Details: plain residues with an end cap or a label only (N-terminal biotin on a linker: ado-ado)

Binder	pKd
TSSMRGMDAV [RSRC2, Q7L4I2]	below the threshold
TLPRKRMSSI [GPRC6A, Q5T6X5]	below the threshold
QSPANIYYKV [EFNB1, P52799]	below the threshold

Biological target: Inadl_5, Q8NI35
Sequence (Q8NI35 673-780): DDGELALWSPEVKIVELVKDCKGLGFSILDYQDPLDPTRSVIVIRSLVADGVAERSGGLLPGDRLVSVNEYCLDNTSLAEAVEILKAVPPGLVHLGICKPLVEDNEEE
Assay: holdup assay
Parameters: key: below the threshold = too weak to quantify, mostly under pKd 3.1 to 4
Details: plain residues with an end cap or a label only (N-terminal biotin on a linker: ado-ado)

Binder	pKd
TSSMRGMDAV [RSRC2, Q7L4I2]	below the threshold
TLPRKRMSSI [GPRC6A, Q5T6X5]	below the threshold
QSPANIYYKV [EFNB1, P52799]	below the threshold

Biological target: T3, MPDZ_5, O75970
Assay: holdup assay
Parameters: key: below the threshold = too weak to quantify, mostly under pKd 3.1 to 4
Details: plain residues with an end cap or a label only (N-terminal biotin on a linker: ado-ado)

Binder	pKd
TSSMRGMDAV [RSRC2, Q7L4I2]	below the threshold
TLPRKRMSSI [GPRC6A, Q5T6X5]	below the threshold
QSPANIYYKV [EFNB1, P52799]	below the threshold

Biological target: T4, LRRC7, Q96NW7
Assay: holdup assay
Parameters: key: below the threshold = too weak to quantify, mostly under pKd 3.1 to 4
Details: plain residues with an end cap or a label only (N-terminal biotin on a linker: ado-ado)

Binder	pKd
TSSMRGMDAV [RSRC2, Q7L4I2]	below the threshold
TLPRKRMSSI [GPRC6A, Q5T6X5]	below the threshold
QSPANIYYKV [EFNB1, P52799]	below the threshold

Biological target: T5, NHERF3_3, Q5T2W1
Assay: holdup assay
Parameters: key: below the threshold = too weak to quantify, mostly under pKd 3.1 to 4
Details: plain residues with an end cap or a label only (N-terminal biotin on a linker: ado-ado)

Binder	pKd
TSSMRGMDAV [RSRC2, Q7L4I2]	below the threshold
TLPRKRMSSI [GPRC6A, Q5T6X5]	below the threshold
QSPANIYYKV [EFNB1, P52799]	below the threshold

Biological target: DLG1_2, Q12959
Sequence (Q12959 314-412): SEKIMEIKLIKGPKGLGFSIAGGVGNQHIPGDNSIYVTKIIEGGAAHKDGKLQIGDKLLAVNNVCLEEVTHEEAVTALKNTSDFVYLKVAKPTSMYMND
Assay: holdup assay
Parameters: key: below the threshold = too weak to quantify, mostly under pKd 3.1 to 4
Details: plain residues with an end cap or a label only (N-terminal biotin on a linker: ado-ado)

Binder	pKd
TSSMRGMDAV [RSRC2, Q7L4I2]	below the threshold
TLPRKRMSSI [GPRC6A, Q5T6X5]	3.76
QSPANIYYKV [EFNB1, P52799]	below the threshold

Biological target: MAGI2_4, Q86UL8
Sequence (Q86UL8 772-865): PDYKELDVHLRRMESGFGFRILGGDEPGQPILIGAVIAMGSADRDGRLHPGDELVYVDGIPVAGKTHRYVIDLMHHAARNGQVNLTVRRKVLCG
Assay: holdup assay
Parameters: key: below the threshold = too weak to quantify, mostly under pKd 3.1 to 4
Details: plain residues with an end cap or a label only (N-terminal biotin on a linker: ado-ado)

Binder	pKd
TSSMRGMDAV [RSRC2, Q7L4I2]	below the threshold
TLPRKRMSSI [GPRC6A, Q5T6X5]	below the threshold
QSPANIYYKV [EFNB1, P52799]	below the threshold

Biological target: T6, PCLO, Q9Y6V0
Assay: holdup assay
Parameters: key: below the threshold = too weak to quantify, mostly under pKd 3.1 to 4
Details: plain residues with an end cap or a label only (N-terminal biotin on a linker: ado-ado)

Binder	pKd
TSSMRGMDAV [RSRC2, Q7L4I2]	below the threshold
TLPRKRMSSI [GPRC6A, Q5T6X5]	below the threshold
QSPANIYYKV [EFNB1, P52799]	below the threshold

Biological target: MAST1, Q9Y2H9
Sequence (Q9Y2H9 962-1065): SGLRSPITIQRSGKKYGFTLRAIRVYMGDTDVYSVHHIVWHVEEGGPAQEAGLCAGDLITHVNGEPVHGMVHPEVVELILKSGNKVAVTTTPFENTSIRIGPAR
Assay: holdup assay
Parameters: key: below the threshold = too weak to quantify, mostly under pKd 3.1 to 4
Details: plain residues with an end cap or a label only (N-terminal biotin on a linker: ado-ado)

Binder	pKd
TSSMRGMDAV [RSRC2, Q7L4I2]	below the threshold
TLPRKRMSSI [GPRC6A, Q5T6X5]	3.6
QSPANIYYKV [EFNB1, P52799]	3.93

Biological target: T7, NHERF3_4, Q5T2W1
Assay: holdup assay
Parameters: key: below the threshold = too weak to quantify, mostly under pKd 3.1 to 4
Details: plain residues with an end cap or a label only (N-terminal biotin on a linker: ado-ado)

Binder	pKd
TSSMRGMDAV [RSRC2, Q7L4I2]	below the threshold
TLPRKRMSSI [GPRC6A, Q5T6X5]	below the threshold
QSPANIYYKV [EFNB1, P52799]	below the threshold

Biological target: DLG2_2, Q15700
Assay: holdup assay
Parameters: key: below the threshold = too weak to quantify, mostly under pKd 3.1 to 4
Details: plain residues with an end cap or a label only (N-terminal biotin on a linker: ado-ado)

Binder	pKd
TSSMRGMDAV [RSRC2, Q7L4I2]	below the threshold
TLPRKRMSSI [GPRC6A, Q5T6X5]	below the threshold
QSPANIYYKV [EFNB1, P52799]	below the threshold

Biological target: LIMK2, P53671
Sequence (P53671 143-248): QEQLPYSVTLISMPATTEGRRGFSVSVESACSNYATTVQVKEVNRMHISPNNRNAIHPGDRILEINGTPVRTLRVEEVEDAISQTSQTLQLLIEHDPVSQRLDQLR
Assay: holdup assay
Parameters: key: below the threshold = too weak to quantify, mostly under pKd 3.1 to 4
Details: plain residues with an end cap or a label only (N-terminal biotin on a linker: ado-ado)

Binder	pKd
TSSMRGMDAV [RSRC2, Q7L4I2]	below the threshold
TLPRKRMSSI [GPRC6A, Q5T6X5]	below the threshold
QSPANIYYKV [EFNB1, P52799]	below the threshold

Biological target: T8, TX1BP3, O14907
Assay: holdup assay
Parameters: key: below the threshold = too weak to quantify, mostly under pKd 3.1 to 4
Details: plain residues with an end cap or a label only (N-terminal biotin on a linker: ado-ado)

Binder	pKd
TSSMRGMDAV [RSRC2, Q7L4I2]	below the threshold
TLPRKRMSSI [GPRC6A, Q5T6X5]	below the threshold
QSPANIYYKV [EFNB1, P52799]	below the threshold

Biological target: T9, SNTA1, Q13424
Assay: holdup assay
Parameters: key: below the threshold = too weak to quantify, mostly under pKd 3.1 to 4
Details: plain residues with an end cap or a label only (N-terminal biotin on a linker: ado-ado)

Binder	pKd
TSSMRGMDAV [RSRC2, Q7L4I2]	below the threshold
TLPRKRMSSI [GPRC6A, Q5T6X5]	below the threshold
QSPANIYYKV [EFNB1, P52799]	below the threshold

Biological target: T10, GRIP1_3, Q9Y3R0
Assay: holdup assay
Parameters: key: below the threshold = too weak to quantify, mostly under pKd 3.1 to 4
Details: plain residues with an end cap or a label only (N-terminal biotin on a linker: ado-ado)

Binder	pKd
TSSMRGMDAV [RSRC2, Q7L4I2]	below the threshold
TLPRKRMSSI [GPRC6A, Q5T6X5]	below the threshold
QSPANIYYKV [EFNB1, P52799]	below the threshold

Biological target: PDZRN4_1, Q6ZMN7
Sequence (Q6ZMN7 213-318): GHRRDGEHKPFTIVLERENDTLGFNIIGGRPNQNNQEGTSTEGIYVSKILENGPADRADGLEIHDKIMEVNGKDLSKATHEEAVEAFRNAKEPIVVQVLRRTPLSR
Assay: holdup assay
Parameters: key: below the threshold = too weak to quantify, mostly under pKd 3.1 to 4
Details: plain residues with an end cap or a label only (N-terminal biotin on a linker: ado-ado)

Binder	pKd
TSSMRGMDAV [RSRC2, Q7L4I2]	below the threshold
TLPRKRMSSI [GPRC6A, Q5T6X5]	below the threshold
QSPANIYYKV [EFNB1, P52799]	below the threshold

Biological target: T11, GRIP1_7, Q9Y3R0
Assay: holdup assay
Parameters: key: below the threshold = too weak to quantify, mostly under pKd 3.1 to 4
Details: plain residues with an end cap or a label only (N-terminal biotin on a linker: ado-ado)

Binder	pKd
TSSMRGMDAV [RSRC2, Q7L4I2]	below the threshold
TLPRKRMSSI [GPRC6A, Q5T6X5]	below the threshold
QSPANIYYKV [EFNB1, P52799]	below the threshold

Biological target: T12, RHPN1, Q8TCX5
Assay: holdup assay
Parameters: key: below the threshold = too weak to quantify, mostly under pKd 3.1 to 4
Details: plain residues with an end cap or a label only (N-terminal biotin on a linker: ado-ado)

Binder	pKd
TSSMRGMDAV [RSRC2, Q7L4I2]	below the threshold
TLPRKRMSSI [GPRC6A, Q5T6X5]	below the threshold
QSPANIYYKV [EFNB1, P52799]	below the threshold

Biological target: HTRA1, Q92743
Sequence (Q92743 360-477): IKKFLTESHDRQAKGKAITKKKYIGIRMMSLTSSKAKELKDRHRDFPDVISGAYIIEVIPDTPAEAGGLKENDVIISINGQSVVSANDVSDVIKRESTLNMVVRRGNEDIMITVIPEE
Assay: holdup assay
Parameters: key: below the threshold = too weak to quantify, mostly under pKd 3.1 to 4
Details: plain residues with an end cap or a label only (N-terminal biotin on a linker: ado-ado)

Binder	pKd
TSSMRGMDAV [RSRC2, Q7L4I2]	below the threshold
TLPRKRMSSI [GPRC6A, Q5T6X5]	below the threshold
QSPANIYYKV [EFNB1, P52799]	4.37

Biological target: GRIP2_7, Q9C0E4
Sequence (Q9C0E4 934-1023): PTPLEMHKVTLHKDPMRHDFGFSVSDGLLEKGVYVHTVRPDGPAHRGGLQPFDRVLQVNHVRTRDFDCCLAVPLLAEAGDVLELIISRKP
Assay: holdup assay
Parameters: key: below the threshold = too weak to quantify, mostly under pKd 3.1 to 4
Details: plain residues with an end cap or a label only (N-terminal biotin on a linker: ado-ado)

Binder	pKd
TSSMRGMDAV [RSRC2, Q7L4I2]	below the threshold
TLPRKRMSSI [GPRC6A, Q5T6X5]	below the threshold
QSPANIYYKV [EFNB1, P52799]	4.34
